In paper PMC9403556 (STAR Protocols, 2022):

Molecular target: T1, human eIF5-mimic protein 1 (h5MP1), wild type, untagged (human, UniProt Q9Y6E2 1-419)
T1 sequence (looked up): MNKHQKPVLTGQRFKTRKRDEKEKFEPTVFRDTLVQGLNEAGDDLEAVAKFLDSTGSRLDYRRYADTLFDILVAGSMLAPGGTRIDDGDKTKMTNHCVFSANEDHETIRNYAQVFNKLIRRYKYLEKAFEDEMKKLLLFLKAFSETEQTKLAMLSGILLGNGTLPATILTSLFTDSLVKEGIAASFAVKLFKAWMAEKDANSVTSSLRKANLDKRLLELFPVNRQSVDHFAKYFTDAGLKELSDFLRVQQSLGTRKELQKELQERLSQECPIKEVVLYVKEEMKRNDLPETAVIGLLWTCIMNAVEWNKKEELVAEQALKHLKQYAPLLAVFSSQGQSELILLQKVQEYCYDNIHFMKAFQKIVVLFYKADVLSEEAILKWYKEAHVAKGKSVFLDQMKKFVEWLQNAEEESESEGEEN
Experiment: ITC

Kd: 5 µM
B1: heIF2β_(53-136), GB1- and His-tags removed (domain or fragment, human, UniProt P20042 53-136, looked up)
chain: DLEADEEDTRKKDASDDLDDLNFFNQKKKKKKTKKIFDIDEAEEGVKDLKIESDVQEPTEPEDDLDIMLGNKKKKKKNVKFPDE
